# In PMC9536601, “Binding of adenovirus species C hexon to prothrombin and the influence of hexon on vector properties in vitro and in vivo” (PLoS Pathogens, 2022):
# B1: hexon of the E1/E3-deleted Ad5 vector Ad5.0 (wild-type Ad5 capsid, on virions) (natural protein, human adenovirus 5)
# chain: ATPSMMPQWSYMHISGQDASEYLSPGLVQFARATETYFSLNNKFRNPTVAPTHDVTTDRSQRLTLRFIPVDREDTAYSYKARFTLAVGDNRVLDMASTYFDIRGVLDRGPTFKPYSGTAYNALAPKGAPNPCEWDEAATALEINLEEEDDDNEDEVDEQAEQQKTHVFGQAPYSGINITKEGIQIGVEGQTPKYADKTFQPEPQIGESQWYETEINHAAGRVLKKTTPMKPCYGSYAKPTNENGGQGILVKQQNGKLESQVEMQFFSTTEATAGNGDNLTPKVVLYSEDVDIETPDTHISYMPTIKEGNSRELMGQQSMPNRPNYIAFRDNFIGLMYYNSTGNMGVLAGQASQLNAVVDLQDRNTELSYQLLLDSIGDRTRYFSMWNQAVDSYDPDVRIIENHGTEDELPNYCFPLGGVINTETLTKVKPKTGQENGWEKDATEFSDKNEIRVGNNFAMEINLNANLWRNFLYSNIALYLPDKLKYSPSNVKISDNPNTYDYMNKRVVAPGLVDCYINLGARWSLDYMDNVNPFNHHRNAGLRYRSMLLGNGRYVPFHIQVPQKFFAIKNLLLLPGSYTYEWNFRKDVNMVLQSSLGNDLRVDGASIKFDSICLYATFFPMAHNTASTLEAMLRNDTNDQSFNDYLSAANMLYPIPANATNVPISIPSRNWAAFRGWAFTRLKTKETPSLGSGYDPYYTYSGSIPYLDGTFYLNHTFKKVAITFDSSVSWPGNDRLLTPNEFEIKRSVDGEGYNVAQCNMTKDWFLVQMLANYNIGYQGFYIPESYKDRMYSFFRNFQPMSRQVVDDTKYKDYQQVGILHQHNNSGFVGYLAPTMREGQAYPANFPYPLIGKTAVDSITQKKFLCDRTLWRIPFSSNFMSMGALTDLGQNLLYANSAHALDMTFEVDPMDEPTLLYVLFEVFDVVRVHRPHRGVIETVYLRTPFSAGNATT
# notes: hexon of human adenovirus type 5, unchanged, as it stands in the capsid of the vector; Immobilised as whole vector virions; source: E1/E3-deleted Ad5 vector grown on 293 cells, virions purified by CsCl ultracentrifugation
# B2: hexon of wild-type human adenovirus type 6 (on virions) (natural protein)
# chain: ATPSMMPQWSYMHISGQDASEYLSPGLVQFARATETYFSLNNKFRNPTVAPTHDVTTDRSQRLTLRFIPVDREDTAYSYKARFTLAVGDNRVLDMASTYFDIRGVLDRGPTFKPYSGTAYNALAPKGAPNSCEWEQNETAQVDAQELDEEENEANEAQAREQEQAKKTHVYAQAPLSGIKITKEGLQIGTADATVAGAGKEIFADKTFQPEPQVGESQWNEADATAAGGRVLKKTTPMKPCYGSYARPTNSNGGQGVMVEQNGKLESQVEMQFFSTSTNATNEVNNIQPTVVLYSEDVNMETPDTHLSYKPKMGDKNAKVMLGQQAMPNRPNYIAFRDNFIGLMYYNSTGNMGVLAGQASQLNAVVDLQDRNTELSYQLLLDSIGDRTRYFSMWNQAVDSYDPDVRIIENHGTEDELPNYCFPLGGIGITDTFQAVKTTAANGDQGNTTWQKDSTFAERNEIGVGNNFAMEINLNANLWRNFLYSNIALYLPDKLKYNPTNVEISDNPNTYDYMNKRVVAPGLVDCYINLGARWSLDYMDNVNPFNHHRNAGLRYRSMLLGNGRYVPFHIQVPQKFFAIKNLLLLPGSYTYEWNFRKDVNMVLQSSLGNDLRVDGASIKFDSICLYATFFPMAHNTASTLEAMLRNDTNDQSFNDYLSAANMLYPIPANATNVPISIPSRNWAAFRGWAFTRLKTKETPSLGSGYDPYYTYSGSIPYLDGTFYLNHTFKKVAITFDSSVSWPGNDRLLTPNEFEIKRSVDGEGYNVAQCNMTKDWFLVQMLANYNIGYQGFYIPESYKDRMYSFFRNFQPMSRQVVDDTKYKDYQQVGIIHQHNNSGFVGYLAPTMREGQAYPANVPYPLIGKTAVDSITQKKFLCDRTLWRIPFSSNFMSMGALTDLGQNLLYANSAHALDMTFEVDPMDEPTLLYVLFEVFDVVRVHRPHRGVIETVYLRTPFSAGNATT
# Tests used:
# Assay in all cases: SPR; Biacore T200; about 300 to 5,000 RU of Ad virions immobilised on a CM5 chip, coagulation factors flowed over at four concentrations, 50 uL/min; running buffer 10 mM HEPES, 150 mM NaCl, 1 mM CaCl2, 0.5 mM MgCl2, 0.1% BSA, 0.05% polysorbate 20, pH 7.4; regeneration with 3 mM EDTA; global fit to a 1:1 kinetic interaction model, double referencing
# Conditions in all cases: both partners purified
# [1] = target: T1, human prothrombin (coagulation factor II) (human, UniProt P00734 44-622, gamma-carboxylated glutamate residues in the Gla domain)
# T1 construct: prothrombin (FII), human, plasma-derived; also called human FII; FII; source: bought: Haematologic Technologies, Inc. (HCP-0010), plasma-derived
# [2] = target: T2, human coagulation factor X (human, UniProt P00742 41-488, gamma-carboxylated glutamate residues in the Gla domain)
# T2 construct: coagulation factor X, human, plasma-derived; written here as one entry; also called human FX; FX; source: bought: Haematologic Technologies, Inc. (HCX-0050), plasma-derived
# [3] = target: T1, human prothrombin (coagulation factor …); remark: listed apart in the source
# [4] = target: T3, mouse coagulation factor X (mouse, UniProt O88947 41-481, gamma-carboxylated glutamate residues in the Gla domain)
# T3 construct: coagulation factor X, mouse, plasma-derived; Pretreated with 125 uM GGACK (EGRCK); written here as one entry; also called mouse FX; source: bought: Haematologic Technologies, Inc. (MCX-5050), plasma-derived
# [5] = target: T4, mouse prothrombin (coagulation factor II) (mouse, UniProt P19221 44-618, gamma-carboxylated glutamate residues in the Gla domain)
# T4 construct: prothrombin (FII), mouse, plasma-derived; also called mouse FII
# T4 sequence (P19221 44-618): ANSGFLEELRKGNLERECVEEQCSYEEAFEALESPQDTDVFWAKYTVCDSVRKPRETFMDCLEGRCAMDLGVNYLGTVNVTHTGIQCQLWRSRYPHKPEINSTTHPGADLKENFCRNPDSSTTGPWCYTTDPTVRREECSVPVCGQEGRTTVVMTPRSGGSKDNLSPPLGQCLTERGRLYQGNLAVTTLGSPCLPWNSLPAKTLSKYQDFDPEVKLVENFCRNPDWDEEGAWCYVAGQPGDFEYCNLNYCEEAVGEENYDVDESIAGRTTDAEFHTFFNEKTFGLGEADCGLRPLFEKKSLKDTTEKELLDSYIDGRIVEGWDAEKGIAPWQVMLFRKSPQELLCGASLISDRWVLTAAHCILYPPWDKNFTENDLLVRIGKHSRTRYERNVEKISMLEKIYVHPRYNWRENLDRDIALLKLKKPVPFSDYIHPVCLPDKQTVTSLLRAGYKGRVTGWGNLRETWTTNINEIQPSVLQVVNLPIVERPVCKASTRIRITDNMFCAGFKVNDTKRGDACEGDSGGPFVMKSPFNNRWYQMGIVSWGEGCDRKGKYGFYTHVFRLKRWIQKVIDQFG
# [6] = target: T5, bovine coagulation factor X (bovine, UniProt P00743 41-492, gamma-carboxylated glutamate residues in the Gla domain)
# T5 construct: coagulation factor X, bovine, plasma-derived; Pretreated with 125 uM GGACK (EGRCK); written here as one entry; also called bovine FX; source: bought: Haematologic Technologies, Inc. (BCX-1050), plasma-derived
# [7] = target: T6, bovine prothrombin (coagulation factor II) (bovine, UniProt P00735 44-625, gamma-carboxylated glutamate residues in the Gla domain)
# T6 construct: prothrombin (FII), bovine, plasma-derived; also called bovine FII; source: bought: Haematologic Technologies, Inc. (BCP-1010), plasma-derived
# T6 sequence (P00735 44-625): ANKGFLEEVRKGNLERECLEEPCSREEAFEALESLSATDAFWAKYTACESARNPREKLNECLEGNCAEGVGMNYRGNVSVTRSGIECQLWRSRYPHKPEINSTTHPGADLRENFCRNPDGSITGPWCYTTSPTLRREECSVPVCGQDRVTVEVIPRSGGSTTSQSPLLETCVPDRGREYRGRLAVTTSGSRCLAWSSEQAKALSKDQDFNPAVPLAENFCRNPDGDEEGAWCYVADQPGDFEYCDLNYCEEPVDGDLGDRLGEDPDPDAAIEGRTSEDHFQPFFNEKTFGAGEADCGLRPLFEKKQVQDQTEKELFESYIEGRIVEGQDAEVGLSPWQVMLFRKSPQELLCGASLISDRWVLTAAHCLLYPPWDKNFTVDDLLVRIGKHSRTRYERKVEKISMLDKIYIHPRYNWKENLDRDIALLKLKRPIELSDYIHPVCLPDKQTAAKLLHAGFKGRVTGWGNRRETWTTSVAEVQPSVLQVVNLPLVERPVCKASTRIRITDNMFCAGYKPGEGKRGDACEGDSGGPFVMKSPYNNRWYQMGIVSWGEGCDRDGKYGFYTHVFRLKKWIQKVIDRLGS
binder,measurement,setting,value
B1,Kd,[1],35 nM
same,koff,[1],0.00317 s⁻¹
same,kon,[1],90500 M⁻¹ s⁻¹
B2,Kd,[2],28 nM
same,koff,[2],0.00326 s⁻¹
same,kon,[2],116000 M⁻¹ s⁻¹
same,Kd,[3],2.7 nM
same,koff,[3],0.000182 s⁻¹
same,kon,[3],67000 M⁻¹ s⁻¹
same,Kd,[4],0.42 nM
same,koff,[4],4.08e-05 s⁻¹
same,kon,[4],96600 M⁻¹ s⁻¹
same,Kd,[5],9.9 nM
same,koff,[5],0.000575 s⁻¹
same,kon,[5],58200 M⁻¹ s⁻¹
same,Kd,[6],100 nM
same,koff,[6],0.0147 s⁻¹
same,kon,[6],144000 M⁻¹ s⁻¹
same,Kd,[7],75 nM
same,koff,[7],0.00395 s⁻¹
same,kon,[7],53000 M⁻¹ s⁻¹
